Measured values as given in paper PMC2738593 (Nature methods, 2009).
Where a chain is given by its changes, count along the chain named. Where two headings read alike, the source gives them in different places.

B1: cysteine-less HCN2I fragment (carboxyl-terminal region of mouse HCN2, C-linker and CNBD, residues 443-640) (domain or fragment, UniProt O88703 443-640, looked up)
chain: DSSRRQYQEKYKQVEQYMSFHKLPADFRQKIHDYYEHRYQGKMFDEDSILGELNGPLREEIVNFNNRKLVASMPLFANADPNFVTAMLTKLKFEVFQPGDYIIREGTIGKKMYFIQHGVVSVLTKGNKEMKLSDGSYFGEISLLTRGRRTASVRADTYSRLYSLSVDNFNEVLEEYPMMRRAFETVAIDRLDRIGKKN
B2: wild-type mouse HCN2I construct (carboxyl-terminal fragment of HCN2, C-linker and CNBD, residues 443-640) (domain or fragment, UniProt O88703 443-640, looked up)
chain: B1 chain with N66C, S142C, S159C

Assays:
[1] = target: the molecule itself; assay: crystal structure
[2] = target: the molecule itself; assay: crystal structure; remark: listed apart in the source

| Protein | stoichiometry N [1] | stoichiometry N [2] |
| --- | --- | --- |
| B1 | 4 | – |
| B2 | – | 4 |
